Results reported in PMC2820103 (Biochemistry, 2009).

Molecular target: the molecule itself
Assay: SEC

B1: Benzylsuccinate synthase α subunit (BSS-α) with a C-terminal His6 tag (natural protein, Thauera aromatica T1, UniProt O68395 1-864, looked up)
chain: MNDIVSAKVLEYKGKKLNFTPEDPAEETIPADELHEHLQKPSTARTKRLKERCRWKHASAGEFIEKSVTAGIERMRYLTEAHKASEGKPEAIRRALGLANVLNKSTLVLQEDEFIVGYHAEDPNMFPLYPELSHMAVQDYLRSDYSPQPADEAAAINEYWKPHSLQSKCQPYFDPADLGRMYQVSSMEAPSFASGYNSIVPPYETVLEDGLLARIKLAEKHIAEAQADMSTFPWNGTKGLDNIAKIDNWKAMVIACKAVISWARRQGRLCKIVAENFETDPKRQAELLEIADICQRIPAEPCKGLKDAMQAKFFTFLICHAIERYASGYAQKEDTLLWPYYKASVVDKKFQPMSHMDAVELVEMERLKISEHGAGKSRAYREIFPGSNDLFILTVGGTNAKGEDACNDMTDAILEAAKRIRTAEPSIVFRYSKKNREKTLRWVFECIRDGLGYPSIKHDEIGTEQMKEYAKFSLNGNGATDEEAHNWVNVLCMSPGIHGRRKTQKTRSEGGGSIFPAKLLEISLNDGYDWSYADMQLGPKTGDLSSLKSFEDVWEAFRKQYQYAINLCISTKDVSRYFEQRFLQMPFVSAIDDGCMELGMDACALSEQPNGWHNPITTIVAANSLVAIKKLVFEEKKYTLEQLSQALKANWEGFEEMRVDFKRAPKWGNDDDYADGIITRFYEEIIGGEMRKITNYSGGPVMPTGQAVGLYMEVGSRTGPTPDGRFGGEAADDGGISPYMGTDKKGPTAVLRSVSKVQKNQKGNLLNQRLSVPIMRSKHGFEIWNSYMKTWHDLNIDHVQFNVVSTDEMRAAQREPEKHHDLIVRVSGYSARFVDIPTYGQNTIIARQEQDFSASDLEFLNVEI
  stoichiometry N: 2
